Data taken from US12031981B2, “Method for electronic detection and quantification of antibodies” (Arizona Board of Regents on behalf of Arizona State …, priority 2018, dated 2024).

Target: RGD peptide
Test: Single molecule conductance of integrin binding RGD peptide on electrodes
Conditions: one ligand binding site

Chain of RGD peptide (P06756 31-889 limits assumed): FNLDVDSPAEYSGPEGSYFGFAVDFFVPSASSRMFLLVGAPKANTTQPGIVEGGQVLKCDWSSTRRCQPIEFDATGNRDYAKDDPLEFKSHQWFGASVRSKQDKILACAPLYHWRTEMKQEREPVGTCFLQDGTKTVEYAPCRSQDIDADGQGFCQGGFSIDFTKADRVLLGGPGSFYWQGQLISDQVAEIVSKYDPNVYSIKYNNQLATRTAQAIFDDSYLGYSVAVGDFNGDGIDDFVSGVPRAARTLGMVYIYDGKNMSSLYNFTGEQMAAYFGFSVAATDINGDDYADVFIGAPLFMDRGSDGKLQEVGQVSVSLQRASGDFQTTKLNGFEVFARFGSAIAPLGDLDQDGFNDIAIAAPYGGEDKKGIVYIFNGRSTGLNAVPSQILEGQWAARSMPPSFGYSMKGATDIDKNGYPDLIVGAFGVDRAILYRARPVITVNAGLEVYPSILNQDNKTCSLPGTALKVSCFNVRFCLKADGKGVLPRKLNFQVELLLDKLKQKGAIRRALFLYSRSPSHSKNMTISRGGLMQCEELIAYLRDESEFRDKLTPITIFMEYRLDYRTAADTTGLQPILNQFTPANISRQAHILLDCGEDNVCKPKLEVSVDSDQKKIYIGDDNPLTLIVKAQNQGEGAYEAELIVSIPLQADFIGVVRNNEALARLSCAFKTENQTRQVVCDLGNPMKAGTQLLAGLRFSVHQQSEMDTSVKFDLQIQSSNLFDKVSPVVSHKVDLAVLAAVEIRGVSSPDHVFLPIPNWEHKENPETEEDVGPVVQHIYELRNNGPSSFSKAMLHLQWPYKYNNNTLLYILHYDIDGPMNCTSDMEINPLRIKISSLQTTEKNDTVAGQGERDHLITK
Chain of RGD peptide (P06756 891-1048 partner limits assumed): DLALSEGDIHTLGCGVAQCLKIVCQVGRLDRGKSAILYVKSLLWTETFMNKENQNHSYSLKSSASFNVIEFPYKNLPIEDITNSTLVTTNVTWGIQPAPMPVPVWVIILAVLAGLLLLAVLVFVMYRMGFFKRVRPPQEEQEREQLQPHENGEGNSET
Chain of RGD peptide (P05106 27-788, further chain): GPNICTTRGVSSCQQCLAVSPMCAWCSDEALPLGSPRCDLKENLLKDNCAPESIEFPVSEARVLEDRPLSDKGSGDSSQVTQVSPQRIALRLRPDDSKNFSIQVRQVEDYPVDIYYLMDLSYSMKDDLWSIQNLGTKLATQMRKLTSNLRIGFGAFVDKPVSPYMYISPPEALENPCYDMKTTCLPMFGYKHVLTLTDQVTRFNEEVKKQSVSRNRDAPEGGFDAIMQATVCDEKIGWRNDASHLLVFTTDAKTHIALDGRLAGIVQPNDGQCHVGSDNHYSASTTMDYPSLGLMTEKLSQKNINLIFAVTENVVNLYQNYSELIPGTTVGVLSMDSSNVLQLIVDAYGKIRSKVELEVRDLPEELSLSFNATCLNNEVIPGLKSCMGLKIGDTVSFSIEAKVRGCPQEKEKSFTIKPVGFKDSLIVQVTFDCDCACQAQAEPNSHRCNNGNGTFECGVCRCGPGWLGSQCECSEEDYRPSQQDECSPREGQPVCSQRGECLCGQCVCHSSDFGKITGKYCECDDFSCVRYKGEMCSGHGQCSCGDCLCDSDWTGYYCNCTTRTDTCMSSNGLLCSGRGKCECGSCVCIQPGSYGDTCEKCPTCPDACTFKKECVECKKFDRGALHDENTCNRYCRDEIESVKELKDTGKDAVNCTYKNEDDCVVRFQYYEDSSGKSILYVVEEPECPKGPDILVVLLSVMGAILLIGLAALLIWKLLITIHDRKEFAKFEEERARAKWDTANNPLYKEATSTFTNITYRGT

Substance: Integrin: αvβ3 integrin binding RGD peptide; only one ligand binding site
- conductance G, single peak of distribution: 0.3 nS
